{"source": "paper PMC10141624", "target": "HA-T-AGM protein (recombinant soluble trimeric hemagglutinin of Influenza A/Guangdong-Maonan/SWL1536/2019 (H1N1) pdm09-like virus) (Influenza A/Guangdong-Maonan/SWL1536/2019 (H1N1) | not stated)", "assay": "SEC", "data": [{"substance": "HA-T-AGM protein (recombinant soluble trimeric hemagglutinin of Influenza A/Guangdong-Maonan/SWL1536/2019 (H1N1) pdm09-like virus)", "values": [{"measurement": "stoichiometry N", "value": 3}]}]}
